From patent publication US20210061891A1

Key:
Experiment in all cases: ELISA on streptavidin-immobilized biotinylated 15mer peptides; area under the signal vs antibody concentration curve
residue mutated to A: T = molecular target: residue mutated to A: T
residue mutated to A: N = molecular target: residue mutated to A: N
residue mutated to A: I = molecular target: residue mutated to A: I

| percent of binding to the natural peptide (AUC) (residue mutated to A: T) [%] | Binder | other results |
| --- | --- | --- |
| 4 | Ab7960/293i (antibody, V domains shown) VH: LVESGGGVVQPGKSLRLSCVASGFSFSTYGMHWVRQAPGKGLEWVAVMSFDGKTKYYADSVKGRFTISRDNPKNTLYLQMNSLRSEDTAVYYCAKGGAAAAVFDSWGPGILLTVSS VL: MTQSPNSLAVSLGGRATINCKASQSILYRSNNKNYLAWYQHKAGQPPKLLIYWASTRESGVPERFSGSGSRTDFTLTINGLQAEDVAVYYCQQYYNPPWTFGQGTKVEIK |  |
| 34 | Ab7979 (antibody, V domains shown) VH: LVESGGGVVQPGKSLRLSCVASGFTFSTYGMHWVRQAPGKGLEWVAVMSFDGKTKYYADSVKGRFTISRDNPKNTLYLQMNSLRSEDTAVYYCAKGGAAAAVFDSWGQGILLTVSS VL: MTQSPNSLAVSLGGRATINCKTSQSILYRSNNKNYLAWYQHKPGQPPKLLIYWASTRESRVPDRFSGSGSRTDFTLTISGLQAEDVAVYYCQQYYNPPWTFGQGTKVEIK |  |
|  | Ab7961/293i (antibody, V domains shown) VH: LVESGGGVVQPGKSLRLSCVASGFTFSSYGMHWVRQAPGKGLEWVAVMSFDGKTKYYADSVKGRFTISRDNPKNTLYLQMNSLRSEDTAVYYCAKGGAAAAVFDSWGQGILLTVSS VL: MTQSPNSLAVSLGGRATINCKTSQSILYRSNNKNYLAWYQHKSGQPPKLLIYWASTRESGVPDRFSGSGSRTDFTLTISGLQAEDVAVYYCQQYYNPPWTFGQGTKVEIK | percent of binding to the natural peptide (AUC) (residue mutated to A: N): 4% |
|  | Ab7955 (antibody, V domains shown) VH: LVESGGGVVRPGRSLRLSCVASGFTFNAYGMHWVRQGPGKGLEWLAVISYEGKTVYYADSVKDRFTISRDNSRNTVSLHLNNLRGEDTAVYYCAKGSASAAVLQHWGQGTLVSVTS VL: MTQSPGSLAVSLGSRATINCKSSRSLLYRSNNKNYLAWYQQKPGQSPRLLIYWASSRESGVPDRFSGGGSGTSFTLTISSLQAEDVAVYYCQQYFNPPWTFGQGTKVEIK | percent of binding to the natural peptide (AUC) (residue mutated to A: I): 8% |
